Drawing on the NTF2 design screens of Basanta et al. (2020), this text covers protease stability score for 34 sequences.

The nature of this data set: protease stability score; higher = more stable; yeast display proteolysis, trypsin and chymotrypsin.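 Also: relative to predicted unfolded state with 0 unfolded-like and 1 meaning tenfold more protease.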
“DDLEREAKTMVDRFRELMATGDFEEREHLVDPNTRWHVNGQDFHGRELITEILIKKFEDLGVEKITFRVERIRVVGDKIEVDGVLIIDGREIDTRLNWTKVNGRWIIKFESEK” had a protease stability score of 0.927. For “DEREKELERIARELLKALYTGDEDILDKLVDPNVRLELDIDGKTNDIHGMENWFRFYETQWKKLGVDVYDIKDMDVWNGKITINSRVEVNGRYIDTRLILVVIDGRMHEIHIKEK”, the protease stability score was determined as 1.23. As to “DEDEKFTKEVIELWIRALRTGDEHTLMRLMDPHVRFEDENYSLHGREDVSRWLIKLLVHLRLEESDEHDSKIIGDKAHLHITSNHIFNGKELHMEIHIIVFKINGRWFVHEVRFR”, the protease stability score amounted to 1.72.

In turn, “DHEEELAKSMLEIWREVVWTGDEDSLQKLLDPDARYHLVVDGKRVERIGMEHIRKELHRLFREWRIEDMHIHEIRVVDGVAHTRTRLVVNIDGRIVDTETVINVVSFDGRVRSVTVDIR” gave a protease stability score of 1.25. Then “TEEEEKSEHLIRLLLHILTTGDEDTYSWLLDPNAKLTFNGVEFHGREDLRRFWEEHLHRLGVDHRDIKDLKRQGDKVIIHNKIHVNGRTIHQEVEIEVINGKAKFNTVILE”, with 0.412. Consider “DRIEELSEEALHILKEVVRTGDERLIEENMDPNTRLEIGDKEFHGRHYAERFARDLGIKHMTFHHYETIDGRVHIHGTLHFNGRTHHTQIVLLKVNGQWRIERIHID”, for which the protease stability score was 0.669. “SEDEHHIERMLKLFVKAVKTGDEDTLVKLLDPHARLHIGDKDHHGWEDIYKHEHELGLDRVEMDIHRIHLQGDKINVDGTLFIDGKHIEVVIYAKKVNGRWFVETREIR” yielded a protease stability score of 1.22.

Turning to “DDEKEEVERLARLFIHYVLTGDEDTLREMVDPNVRIRIGDKRNHGMKFLLHLITVWLERVDHVRIEVDESRLVNGQLNMTGTLHLHQGDKTQELRTRSHLVIVNGVMKEITFEYD”, the protease stability score is 2.06. For the sequence “DEEEEEILRVWEILIHLFVTGDEEKFSKMADPDYKWHQGDKSRIGRESMREHIKKFLEELRIKELHLHHTHVFDGRYEADVELRGHINGRESRIKSRIILEVYNGRVKLFIIDIR”, the protease stability score worked out at 0.559. In the case of “SEEEKNARDFLRLIFNHVHTGDFRHMSKLFDPHVRIQIGDKVFHGREEAERVWLEWRVEDIKIRHIDIQGDKLIVDTEVHGNFNGRNRNIETEIHVRKVDGKWILESMSVI”, the protease stability score was found to be 2.54. The sequence “DELEKAMRTAVELFRHLIETGDEEFMQRLADPHTQLIVGDKTFHGRDHVVHEWEKFKNVKYRFEDVEFQGDKIILHSTLEFDGRRLETHIQLHKINGRWLLKRVEIK” yielded a protease stability score of 1.39.

Sequence “DDNEELTERFMKHLIRAQQTGDWERLKELFDPNTRLIVGEKHVVGREHFINEWLEHHNKLGIDHSQIELHNLRIINGKAHIDGHFIEEFNGKRIEIRIEVVIVKINGRWLIKEIHFI” yielded a protease stability score of 1.44. Consider “DEWERLTEVMIRIFEEIVHTGDERVWEEMADPHVKVHIDGVHFHGREDLLYLLRKMGANVFDLKRSDIQGEKVYLDIQTEFNGQKRDSRFLIVKFNGRWLLESISIH”, for which the protease stability score turned out to be 1.47. With “EEERKEVKFAFDIWSELFLTGDEEDIHHLADPDVRLDINGKNIHGMELIHKIILHDILEWRLEVRVKHIEVQGDKAEIQMELKFRYNGREKHYKFRIIYKKFDGQWRYESIHMR”, the protease stability score turned out to be 1.71. In turn, “DEDHRLAVHISKMFEHAESTGDFEISERMADPHTKIDIGDKHYHGMEEWVRFLRELRLSTDHIEIKDSKRYNGRLIIHSRTRITLNVNGKTIDFEIDVTFIFEKVNGRWKLHMYRFD” displayed a protease stability score of 0.944. “DEKTKEVEHLTEYLREVWETGDFESLHEMMDPHVRVDIGDKHVHGREAVAHHFRKHLENWGVTRFRIEFHVRDVRDINGVVHLDTELRILFDGVLITMRTRFIIEKINGRWVFREVIVR” registered a protease stability score of 2.63. With “NEDDKHAKHLLDLLIRTFITGDEHTLMNLLDPHTRYHQGEKELHGMEMLLHVERHHGATVHHFHVKSVRVIGDKIQFHVHVDHTIDGKRIRTDIDLWMEKVDGRWIVREIRIH”, the protease stability score was determined as 0.815. As for “DEERKDTKEAIERVRDTWRTGDEQDIFNNVDPNTRMIVGDKHHHGMEDVARLAFEWRVHDFRFHEVHSSEDHVILDGRVDGEINGRRINTKMILILLKIDGRWHIESIQYI”, the protease stability score was determined as 0.805. “NEHKEEALHALQLWLRYYETGNEDSLREMLDPNVRVVINGKELHGMELFLDYIVDTRDRIKGLRIIIDDIEIHYVGDKVHVNIRGISYFNGREHEVEINIFSRKINGKWYLSSLELRVN” gave a protease stability score of 2.55. With “TELDEQVTEVFKINERLKQTGDWKKIIDYVDPHARVEIGEFRDHGRDAAEFTMKYLGIDHFELKRVHLQGNKLHIHGELTVDGRLIHLIIISEKVDGRWITKSMTVD”, the protease stability score was 0.01. Consider “DDKEKHVKRISEILLHTWHTGNEESLNRMFDPEVKVYWNGRELVGRENSSKHLAEEKRRADHVEIEIKDVHVIGNKMIIDGTLRRHIGDYQDESEVHIHIEVVDGRIKRLELRIK”, for which the protease stability score was 1.1.

Take “DDKKQFLDHAINRLIRALLTGDWHILFRLLDPHVRMIQGDKEYHGRELWREIYFQDIQRVPNLTFLIKDYHIDLQGDKLRIEIEGELIIDGVNIHMEIISEHTKVNGRWSIHHLEIRHQ”: the protease stability score worked out at 1.33.

Regarding “TEFEQEVERMIRMWRHLYETGDEKTLSHLVDPNVRVIVDGKHIHGREQVVNEIRRAHIVDDFEIRLEDTKYFEGRAVFTGIIREHGHVDGRTVHKSTKVEIDVVKVDGQWLIHRINFH”, the protease stability score was determined as 1.54. The sequence “DEMEEKIRTHMSLLVEYLDTGDEEITKSMLDPNTMAFYGDKLHIGREEAEEILREIRVHHLDIKRIDHQGDKIRVDGEMDGIVNGKRYRTRVEIFSTKINGRWIIEQRVIR” returned a protease stability score of 1.04.

Consider “DEEEKEIRHQAEHWFHIILTGDEDTLRNLADPNVRSVWVIGDYERHEHGMDEHNKILKEWRFEEYRRDSIHAINGRVHLDIRSVMTINGKRMSFRIHIDIHVVNGVRKSITIRIE”, for which the protease stability score was 0.702. Then “SEEHRDSKRAIDILVHSVRTGDEKSFESFLDPNVRIDVDGVELHGMEFATTIFREWRIHHVHIDRYRSQGDWIEVDTTMDVRYGDKTDTRKTELIILKVNGVWLLHSVIIR”, with 1.19; and “DELEEDSKKFFEILIKAYWTGDFTTLSRMMDPHVRNDINGRDIHGMEELSRVETEISRKYGADHFDFHIKDFKVQGEKLTVHGRIIIRVNGKTFEHDEIFYLIKIDGKWTWESVEVL”, with 0.989. For “DEDEEFAENVVERTIHHTQTGDWRMLKHLLDPHVRMNIDGQELHGREQWIRFMEQIKGATLELHIEDFDSQGEKLTLHVRTILVFDGRKYERHVDLLILKVDGRWHIHQFIVR”, the protease stability score was 1.41. “REEERLTRHFAHRLFHSLMTGDEDELTELADPNARSIVDGRTVHGRETMSRIIHHKVRELGVDHNTIEHIEFQGNYVHVHMRIEVGDKTYTSIIHIEKVDGRWLVRSVNLL” yielded a protease stability score of 0.491. The sequence “DEWEKDARDFTRILLEIFKTGDEKSITELLDPNARVEYGDKEMHGMHLMSRILLKDAKEIRVDHMRLRSIDVYNGVLHVNMEVDGTIDGRRDTYRLHVHTHKFDGRWRVENLIIR” yielded a protease stability score of 1.06. The sequence “DERTELTRNFFEEMVDTMITGNEHLEHRLADPNVRIYVGEKRIHGMERYIHQHHQWRFKDFKLKDIDTQGDKATIDGHLEGEVNGKDTRTDVEVHTLKFNGRWLIHTLRIR” gave a protease stability score of 1.1. “SEEEELIEYILELWMHAYVTGDEDVVHEMADPNVRIQVGDKKFIGRKTFSETIHELLNRVDHFRLHIRDYKVINGKAIMHIELHYRVNGKDIHHHVDIDVHKINGRWIVKSIHYR” gave a protease stability score of 1.83.

As to “DEHHEILDHFLHLWIEALHTGDWKLIEKLIDPHAKLRIHQGDKHIEIHGREEVVRREEEWLRRIKNLRLHIDRIEIQGNKFHMEITLHFDGVTVDSRVILFVYDGQIKHIEIRHN”, the protease stability score amounted to 2.43. In turn, “HENEHRMKEFVREVFDLRRTGNWEQLQELFDPNVRIEIGDKRYHGWENLSHFLLHARQDMHIEVTSVEVQGDKIIADGRLEYTLRVGDKDVTYDHRTIIIAHKFNGKWFFTTERIK” had a protease stability score of 1.33.
